Data as given in patent publication US20210388087A1 (Chugai, published 2021).
Changes are numbered by the printed parent chain. In names and notes the source's numbering stands. Blank lines part the entries; values can stand above or below the binder they belong to.

Target: T1, Human CD3eg linker (human)
T1 construct: Single chain: epsilon and gamma subunits of human CD3 joined by a 29-mer linker, Flag-tag at the C-terminus; also called recombinant human CD3
T1 chain: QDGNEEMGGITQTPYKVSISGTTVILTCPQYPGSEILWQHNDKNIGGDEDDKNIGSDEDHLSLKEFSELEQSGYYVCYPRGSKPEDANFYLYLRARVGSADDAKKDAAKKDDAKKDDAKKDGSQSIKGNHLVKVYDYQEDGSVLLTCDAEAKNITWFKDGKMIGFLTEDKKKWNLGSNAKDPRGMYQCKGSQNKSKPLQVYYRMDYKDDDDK
Test: Biacore SPR, vs template H183/L072

B1: H183/L072 VH Y55E (antibody, name in Kabat numbering, V domains shown)
VH: QVQLVESGGGLVQPGRSLRLSCAASGFTFSNAWMHWVRQAPGKGLEWVAQIKDKGNAEAAYYAPSVKGRFTISRDDSKNSIYLQMNSLKTEDTAVYYCHYVHYASASTVLPAFGVDAWGQGTTVTVSS
VL: DIVMTQSPLSLPVTPGEPASISCQASQELVHMNRNTYLHWYQQKPGQAPRLLIYKVSNRFPGVPDRFSGSGSGTDFTLKISRVEAEDVGVYYCAQGTSVPFTFGQGTKLEIK
fold change of affinity: 0.6 fold

B2: H183/L072 VH Y55T (antibody, name in Kabat numbering, V domains shown)
VH: B1 VH with E58T
VL: B1 VL
fold change of affinity: 0 fold

B3: H183/L072 VH Y55I (antibody, name in Kabat numbering, V domains shown)
VH: B1 VH with E58I
VL: B1 VL
fold change of affinity: 0 fold

B8: H183/L072 VH Y55H (antibody, name in Kabat numbering, V domains shown)
VH: B1 VH with E58H
VL: B1 VL
fold change of affinity: 0.7 fold

B9: H183/L072 VH Y55V (antibody, name in Kabat numbering, V domains shown)
VH: B1 VH with E58V
VL: B1 VL
fold change of affinity: 0.3 fold

B10: H183/L072 VH Y58D (antibody, name in Kabat numbering, V domains shown)
VH: B1 VH with E58Y, Y61D
VL: B1 VL
fold change of affinity: 0 fold

B12: H183/L072 VH Y58E (antibody, name in Kabat numbering, V domains shown)
VH: B1 VH with E58Y, Y61E
VL: B1 VL
fold change of affinity: 0.2 fold

B13: H183/L072 VH Y58I (antibody, name in Kabat numbering, V domains shown)
VH: B1 VH with E58Y, Y61I
VL: B1 VL
fold change of affinity: 0.3 fold

B18: H183/L072 VH Y55L (antibody, name in Kabat numbering, V domains shown)
VH: B1 VH with E58L
VL: B1 VL
fold change of affinity: 0.5 fold

B19: H183/L072 VH Y55S (antibody, name in Kabat numbering, V domains shown)
VH: B1 VH with E58S
VL: B1 VL
fold change of affinity: 0 fold

B21: H183/L072 VH Y55R (antibody, name in Kabat numbering, V domains shown)
VH: B1 VH with E58R
VL: B1 VL
fold change of affinity: 0.4 fold

B23: H183/L072 VH Y58K (antibody, name in Kabat numbering, V domains shown)
VH: B1 VH with E58Y, Y61K
VL: B1 VL
fold change of affinity: 0.6 fold

B24: H183/L072 VH Y55G (antibody, name in Kabat numbering, V domains shown)
VH: B1 VH with E58G
VL: B1 VL
fold change of affinity: 0.6 fold

B26: H183/L072 VH Y58A (antibody, name in Kabat numbering, V domains shown)
VH: B1 VH with E58Y, Y61A
VL: B1 VL
fold change of affinity: 0.6 fold

B28: H183/L072 VH Y55W (antibody, name in Kabat numbering, V domains shown)
VH: B1 VH with E58W
VL: B1 VL
fold change of affinity: 0.5 fold

B29: H183/L072 VH Y58G (antibody, name in Kabat numbering, V domains shown)
VH: B1 VH with E58Y, Y61G
VL: B1 VL
fold change of affinity: 0.3 fold

B34: H183/L072 VH Y55F (antibody, name in Kabat numbering, V domains shown)
VH: B1 VH with E58F
VL: B1 VL
fold change of affinity: 0.8 fold

B35: H183/L072 VH Y58H (antibody, name in Kabat numbering, V domains shown)
VH: B1 VH with E58Y, Y61H
VL: B1 VL
fold change of affinity: 0.6 fold

B39: H183/L072 VH Y55M (antibody, name in Kabat numbering, V domains shown)
VH: B1 VH with E58M
VL: B1 VL
fold change of affinity: 0.6 fold

B40: H183/L072 VH Y55Q (antibody, name in Kabat numbering, V domains shown)
VH: B1 VH with E58Q
VL: B1 VL
fold change of affinity: 0.5 fold

B41: H183/L072 VH Y55P (antibody, name in Kabat numbering, V domains shown)
VH: B1 VH with E58P
VL: B1 VL
fold change of affinity: 0 fold

B43: H183/L072 VH Y55K (antibody, name in Kabat numbering, V domains shown)
VH: B1 VH with E58K
VL: B1 VL
fold change of affinity: 0.4 fold

B44: H183/L072 VH Y55N (antibody, name in Kabat numbering, V domains shown)
VH: B1 VH with E58N
VL: B1 VL
fold change of affinity: 0.7 fold

B45: H183/L072 VH Y58F (antibody, name in Kabat numbering, V domains shown)
VH: B1 VH with E58Y, Y61F
VL: B1 VL
fold change of affinity: 1.4 fold

Continued, values first:

fold change of affinity: 0 fold
B4: H183/L072 VH Y58W (antibody, name in Kabat numbering, V domains shown)
VH: B1 VH with E58Y, Y61W
VL: B1 VL

fold change of affinity: 0.9 fold
B5: H183/L072 VH Y59I (antibody, name in Kabat numbering, V domains shown)
VH: B1 VH with E58Y, Y62I
VL: B1 VL

fold change of affinity: 0.3 fold
B6: H183/L072 VH Y58Q (antibody, name in Kabat numbering, V domains shown)
VH: B1 VH with E58Y, Y61Q
VL: B1 VL

fold change of affinity: 0.3 fold
B7: H183/L072 VH Y58V (antibody, name in Kabat numbering, V domains shown)
VH: B1 VH with E58Y, Y61V
VL: B1 VL

fold change of affinity: 1 fold
B11: H183/L072 VH Y59L (antibody, name in Kabat numbering, V domains shown)
VH: B1 VH with E58Y, Y62L
VL: B1 VL

fold change of affinity: 0.5 fold
B14: H183/L072 VH Y58P (antibody, name in Kabat numbering, V domains shown)
VH: B1 VH with E58Y, Y61P
VL: B1 VL

fold change of affinity: 1.1 fold
B15: H183/L072 VH Y59G (antibody, name in Kabat numbering, V domains shown)
VH: B1 VH with E58Y, Y62G
VL: B1 VL

fold change of affinity: 0.2 fold
B16: H183/L072 VH Y58T (antibody, name in Kabat numbering, V domains shown)
VH: B1 VH with E58Y, Y61T
VL: B1 VL

fold change of affinity: 0.6 fold
B17: H183/L072 VH Y59F (antibody, name in Kabat numbering, V domains shown)
VH: B1 VH with E58Y, Y62F
VL: B1 VL

fold change of affinity: 1 fold
B20: H183/L072 VH Y59M (antibody, name in Kabat numbering, V domains shown)
VH: B1 VH with E58Y, Y62M
VL: B1 VL

fold change of affinity: 1.3 fold
B22: H183/L072 VH Y59K (antibody, name in Kabat numbering, V domains shown)
VH: B1 VH with E58Y, Y62K
VL: B1 VL

fold change of affinity: 0.4 fold
B25: H183/L072 VH Y58M (antibody, name in Kabat numbering, V domains shown)
VH: B1 VH with E58Y, Y61M
VL: B1 VL

fold change of affinity: 1.2 fold
B27: H183/L072 VH Y59N (antibody, name in Kabat numbering, V domains shown)
VH: B1 VH with E58Y, Y62N
VL: B1 VL

fold change of affinity: 0.5 fold
B30: H183/L072 VH Y58R (antibody, name in Kabat numbering, V domains shown)
VH: B1 VH with E58Y, Y61R
VL: B1 VL

fold change of affinity: 1.4 fold
B31: H183/L072 VH Y59H (antibody, name in Kabat numbering, V domains shown)
VH: B1 VH with E58Y, Y62H
VL: B1 VL

fold change of affinity: 0.4 fold
B32: H183/L072 VH Y58L (antibody, name in Kabat numbering, V domains shown)
VH: B1 VH with E58Y, Y61L
VL: B1 VL

fold change of affinity: 1.1 fold
B33: H183/L072 VH Y59D (antibody, name in Kabat numbering, V domains shown)
VH: B1 VH with E58Y, Y62D
VL: B1 VL

fold change of affinity: 0.4 fold
B36: H183/L072 VH Y58S (antibody, name in Kabat numbering, V domains shown)
VH: B1 VH with E58Y, Y61S
VL: B1 VL

fold change of affinity: 1 fold
B37: H183/L072 VH Y59A (antibody, name in Kabat numbering, V domains shown)
VH: B1 VH with E58Y, Y62A
VL: B1 VL

fold change of affinity: 1.1 fold
B38: H183/L072 VH Y59E (antibody, name in Kabat numbering, V domains shown)
VH: B1 VH with E58Y, Y62E
VL: B1 VL

fold change of affinity: 0.5 fold
B42: H183/L072 VH Y58N (antibody, name in Kabat numbering, V domains shown)
VH: B1 VH with E58Y, Y61N
VL: B1 VL
